From patent US20210130428A1 (Novartis, published 2021)
Where a chain is given by its changes, count along the chain named.

B1: Antibody 5 (antibody, human IgG1, lambda, V domains shown)
VH: QVQLVESGGGLVKPGGSLRLSCAASGFTFSSYVVHWVRQAPGKGLEWVGRIKRESSSYTTMYAAPVKGRFTISRDDSKNTLYLQMNSLKTEDTAVYYCARVERSKSGFDNWGQGTLVTVSS
VL: QSVLTQPPSVSGAPGQRVTISCTGSSSNIGAGYSVHWYQQLPGTAPKLLIYGQSERPSGVPDRFSGSKSGTSASLAITGLQAEDEADYYCQSWDSSQTLVVFGGGTKLTVLG
notes: also called Ab 5
B2: Antibody 6 (antibody, human IgG1, lambda, V domains shown)
VH: B1 VH with I51T, K52R, R53H, E54S, S55D, S56M, S57G, T59A, M61S
VL: B1 VL
notes: also called Ab 6
B3: Antibody 7 (antibody, human IgG1, lambda, V domains shown)
VH: B1 VH with K52R, R53L, S55T, S56H, S57G, T59A, T60A, M61E, P65S
VL: B1 VL
notes: also called Ab 7; Ab7

Assays:
[1] = target: T1, human BMP6 (Bone Morphogenetic Protein 6) (human, UniProt P22004 382-513, limits assumed); assay: cell-based or functional assay
T1 sequence (looked up): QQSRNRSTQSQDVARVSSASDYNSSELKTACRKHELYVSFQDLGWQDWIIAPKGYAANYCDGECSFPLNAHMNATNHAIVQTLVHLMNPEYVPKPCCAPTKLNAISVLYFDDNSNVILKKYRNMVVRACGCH

[2] = target: T1, human BMP6 (Bone Morphogenetic Protein …); assay: method not stated (Table 8, KD(nM) BMP6)
[3] = target: T1, human BMP6 (Bone Morphogenetic Protein …); assay: cell-based or functional assay; remark: listed apart in the source
[4] = target: T2, human BMP7 (Bone Morphogenetic Protein 7) (human, UniProt P18075 293-431); assay: cell-based or functional assay
T2 sequence (looked up): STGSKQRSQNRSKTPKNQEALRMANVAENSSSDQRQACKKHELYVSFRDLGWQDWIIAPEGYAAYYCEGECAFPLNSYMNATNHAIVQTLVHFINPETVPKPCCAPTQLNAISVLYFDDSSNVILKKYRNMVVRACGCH

[5] = target: human BMP2 (Bone Morphogenetic Protein 2) (human, UniProt P12643 283-396); assay: cell-based or functional assay
Chain of human BMP2 (Bone Morphogenetic Protein 2) (P12643 283-396 limits assumed): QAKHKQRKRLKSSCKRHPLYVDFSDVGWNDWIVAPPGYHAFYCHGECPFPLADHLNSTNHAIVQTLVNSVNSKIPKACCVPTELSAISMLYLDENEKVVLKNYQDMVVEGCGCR

[6] = target: T3, human BMP5 (Bone Morphogenetic Protein 5) (human, UniProt P22003 317-454, limits assumed); assay: cell-based or functional assay
T3 sequence (looked up): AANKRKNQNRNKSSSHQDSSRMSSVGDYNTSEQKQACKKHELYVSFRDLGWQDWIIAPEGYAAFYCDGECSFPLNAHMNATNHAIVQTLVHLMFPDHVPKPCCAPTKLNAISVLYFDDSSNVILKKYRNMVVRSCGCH

[7] = target: T1, human BMP6 (Bone Morphogenetic Protein …); assay: cell-based or functional assay; remark: listed apart in the source
Mouse BMP6 = target: T4, Mouse BMP6 (mouse, UniProt P20722); assay: ELISA binding assay, fluorescence signal intensity (anti-Fab-AP detection); one bar per antigen, antibody concentration not given
T4 construct: Antigen no
T4 sequence (ligand, looked up): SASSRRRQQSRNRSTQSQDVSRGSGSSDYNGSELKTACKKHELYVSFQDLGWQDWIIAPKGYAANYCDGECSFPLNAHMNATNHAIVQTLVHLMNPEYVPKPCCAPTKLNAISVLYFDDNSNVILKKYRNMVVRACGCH

[8] = target: human BMP7 (Bone Morphogenetic Protein 7) (human) (UniProt P18075); assay: cell-based or functional assay
BSA = target: T5, BSA (bovine, UniProt P02769); assay: ELISA binding assay, fluorescence signal intensity (anti-Fab-AP detection); antibody concentration not given
T5 construct: Unrelated control antigen no
T5 sequence (P02769 25-607 limits assumed): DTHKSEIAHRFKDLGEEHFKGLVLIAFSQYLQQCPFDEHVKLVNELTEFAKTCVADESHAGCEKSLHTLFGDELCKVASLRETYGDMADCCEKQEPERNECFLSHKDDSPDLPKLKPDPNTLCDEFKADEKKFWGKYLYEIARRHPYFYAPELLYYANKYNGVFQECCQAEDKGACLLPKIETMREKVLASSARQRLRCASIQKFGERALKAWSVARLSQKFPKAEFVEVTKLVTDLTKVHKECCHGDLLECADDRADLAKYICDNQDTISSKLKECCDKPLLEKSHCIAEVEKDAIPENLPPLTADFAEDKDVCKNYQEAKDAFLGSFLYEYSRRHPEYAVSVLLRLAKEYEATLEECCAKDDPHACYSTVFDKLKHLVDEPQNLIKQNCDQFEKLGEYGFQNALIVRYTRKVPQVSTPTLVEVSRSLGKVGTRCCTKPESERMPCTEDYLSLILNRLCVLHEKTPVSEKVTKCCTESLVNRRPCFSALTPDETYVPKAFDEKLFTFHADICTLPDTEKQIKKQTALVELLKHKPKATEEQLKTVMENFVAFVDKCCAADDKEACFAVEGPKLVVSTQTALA

hBaffR = target: T6, hBaffR (human, UniProt Q96RJ3); assay: as above
T6 construct: Unrelated control antigen no
T6 sequence (control antigen, looked up): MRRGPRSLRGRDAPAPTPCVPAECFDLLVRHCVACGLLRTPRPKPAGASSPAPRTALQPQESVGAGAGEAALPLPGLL

[9] = target: T3, human BMP5 (Bone Morphogenetic Protein …); assay: as above
[10] = target: human BMP7 (Bone Morphogenetic Protein 7) (human) (UniProt P18075); assay: ELISA binding assay

Binder | IC50 (read off the curve), BMP reporter gene assay [panel Ab5] [1] [nM] | Kd [2] [nM] | IC50, BMP reporter (BRE-luc) activity in Hep3B [3] [nM] | selectivity window against BMP6, BMP reporter gene assay [4] [fold] | selectivity window against BMP6, BMP reporter gene assay [5] [fold] | selectivity window against BMP6, BMP reporter gene assay [6] [fold] | IC50(ug/ml) BMP6 reporter [7] [µg/mL] | IC50 (read off the curve), BMP reporter gene assay [panel Ab6] [1] [nM] | IC50 (read off the curve), BMP reporter gene assay [panel Ab7] [1] [nM] | binding result (Mouse BMP6) | selectivity window against BMP6, BMP reporter gene assay [8] [fold] | binding result (BSA) | binding result (hBaffR) | binding result [9] | selectivity, affinity to human BMP6 over affinity to human BMP7 [10] [fold]
B1 | ~0.5 | 0.1 | 0.4 | ≥ 500 | ≥ 500 | ≥ 500 | 0.06 | – | – | – | – | – | – | – | –
B2 | – | < 0.1 | 0.4 | ≥ 500 | ≥ 500 | ≥ 500 | 0.08 | ~0.5 | – | – | – | – | – | – | –
B3 | – | 0.1 | 0.4 | – | ≥ 500 | ≥ 500 | 0.07 | – | ~0.5 | binds | > 500 | no binding | no binding | no binding | > 500
